Test [1] deals with T1, Recombinant human IL-1RAP-ECD(S21-E359)-avi-his protein (human, UniProt Q9NPH3 21-359).
T1 construct: Biotinylated where loaded on streptavidin; also called human IL-1RAP-ECD-Avi-His; recombinant human IL-1RAP-avi-his protein
T1 sequence: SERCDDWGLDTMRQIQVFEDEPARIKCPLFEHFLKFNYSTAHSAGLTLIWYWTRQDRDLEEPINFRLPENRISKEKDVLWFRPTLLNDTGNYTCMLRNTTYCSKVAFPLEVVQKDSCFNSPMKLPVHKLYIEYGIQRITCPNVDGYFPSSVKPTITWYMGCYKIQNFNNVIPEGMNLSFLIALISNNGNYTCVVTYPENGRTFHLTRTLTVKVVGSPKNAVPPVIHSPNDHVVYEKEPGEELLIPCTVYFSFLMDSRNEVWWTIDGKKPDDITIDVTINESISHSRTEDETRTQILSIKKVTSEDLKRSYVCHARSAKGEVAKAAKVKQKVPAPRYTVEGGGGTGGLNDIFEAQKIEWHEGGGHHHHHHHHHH
Description: SPR, IgG1 LALA captured by anti-human Fc, human IL-1RAP-avi-his as analyte, 1:1 fit. The protocol: Surface plasmon resonance (SPR) was used to measure the binding affinities of the human IgG1 LALA molecules for human and cynomolgus monkey IL-1RAP. Affinities were measured on a BIACORE™ T200 instrument (BIACORE™, GE […]®) at 25° C. and analyzed with the BIACORE™ T200 Evaluation Software (v3.1). Measurements were performed on Series S CM5 sensor chips (BIACORE™ T200, BIACORE™, GE […]®, catalog no. BR100530) coupled with anti-human IgG Fc (BIACORE™, GE […]®, catalog no. BR100839) using a commercial amine coupling kit (BIACORE™, GE […]®, catalog no. BR100050). SPR measurements were performed with recombinant human IL-1RAP-avi-his protein produced in house (SEQ ID NO. 1) or recombinant cynomolgus monkey IL-1RAP-avi-his protein produced in house (SEQ ID NO. 2). The affinities to human and cynomolgus monkey IL-1RAP were assessed by immobilizing anti-IL-1RAP IgG1 LALA molecules and using IL-1RAP proteins as analyte. Around 150 RU of human IgG1 LALA were captured on fc2 of a Series S CM5 sensor chip coupled with anti-human IgG Fc. Recombinant human IL-1RAP-avi-his protein or recombinant cynomolgus monkey IL-1RAP-avi-his protein was injected in multi cycle kinetic at different concentrations ranging from 0.14 to 100 nM, in HBS-EP+ buffer (BIACORE™, GE […]®, catalog no. BR100669) at a flow rate of 30 μl/min for 3 min on fc1 and fc2 (fc1 being used as reference). Dissociation was monitored for 12 min. After each cycle, the surface was regenerated with 60 μl of regeneration solution provided with anti-human IgG Fc capture kit (BIACORE™, GE […]®, catalog no. BR100839). Experimental data were processed using the 1:1 Langmuir kinetic fitting model. Measurements included zero-concentration samples for referencing. Chi², U- and residual values were used to evaluate the quality of a fit between the experimental data and individual binding models.
On the technique in general: SPR reads the build-up and loss of mass on a sensor chip optically.

Test [2] deals with T2, Recombinant cynomolgus monkey IL-1RAP-ECD(S21-E359)-avi-his protein (cynomolgus monkey, UniProt P59822 21-359 (rhesus entry)).
T2 construct: also called cyno IL-1RAP-ECD-Avi-His; recombinant cynomolgus monkey IL-1RAP-avi-his protein
T2 sequence: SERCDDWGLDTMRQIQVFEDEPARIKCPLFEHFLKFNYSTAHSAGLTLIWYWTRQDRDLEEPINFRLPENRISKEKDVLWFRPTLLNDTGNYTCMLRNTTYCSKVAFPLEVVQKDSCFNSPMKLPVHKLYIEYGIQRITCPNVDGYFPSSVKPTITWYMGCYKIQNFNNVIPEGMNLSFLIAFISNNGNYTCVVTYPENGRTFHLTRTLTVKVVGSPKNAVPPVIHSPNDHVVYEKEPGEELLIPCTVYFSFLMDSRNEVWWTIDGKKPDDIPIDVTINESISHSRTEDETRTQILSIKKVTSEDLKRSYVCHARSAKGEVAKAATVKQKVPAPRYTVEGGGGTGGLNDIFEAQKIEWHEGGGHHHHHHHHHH
The test is described as follows: SPR, IgG1 LALA captured on anti-human IgG Fc CM5 chip, cynomolgus monkey IL-1RAP-avi-his as analyte in a concentration series, 1:1 fit, one representative replicate. As to the method: Anti-IL-1RAP-C8-RecC-ES IgG1 LALA was immobilized on a Series S CM5 sensor CHIP coupled with anti-human IgG Fc. Human IL-1RAP-avi-his or cynomolgus monkey IL-1RAP-avi-his was injected over immobilized IgG1 LALA in concentration series in HBS-EP+ buffer. One representative replicate for human IL-1RAP and cynomolgus monkey IL-1RAP is presented. Plots are showing data expressed as number of resonance units (abbreviated RU; Y axis) vs. time (s, X axis). Dotted lines represent the measured data while solid lines represent simulated fits. KD: equilibrium dissociation constant; Ka: association constant; Kd: dissociation constant.
Surface plasmon resonance (SPR) was used to measure the binding affinities of the human IgG1 LALA molecules for human and cynomolgus monkey IL-1RAP. Affinities were measured on a BIACORE™ T200 instrument (BIACORE™, GE […]®) at 25° C. and analyzed with the BIACORE™ T200 Evaluation Software (v3.1). Measurements were performed on Series S CM5 sensor chips (BIACORE™ T200, BIACORE™, GE […]®, catalog no. BR100530) coupled with anti-human IgG Fc (BIACORE™, GE […]®, catalog no. BR100839) using a commercial amine coupling kit (BIACORE™, GE […]®, catalog no. BR100050). SPR measurements were performed with recombinant human IL-1RAP-avi-his protein produced in house (SEQ ID NO. 1) or recombinant cynomolgus monkey IL-1RAP-avi-his protein produced in house (SEQ ID NO. 2). The affinities to human and cynomolgus monkey IL-1RAP were assessed by immobilizing anti-IL-1RAP IgG1 LALA molecules and using IL-1RAP proteins as analyte. Around 150 RU of human IgG1 LALA were captured on fc2 of a Series S CM5 sensor chip coupled with anti-human IgG Fc. Recombinant human IL-1RAP-avi-his protein or recombinant cynomolgus monkey IL-1RAP-avi-his protein was injected in multi cycle kinetic at different concentrations ranging from 0.14 to 100 nM, in HBS-EP+ buffer (BIACORE™, GE […]®, catalog no. BR100669) at a flow rate of 30 μl/min for 3 min on fc1 and fc2 (fc1 being used as reference). Dissociation was monitored for 12 min.

B1: Anti-IL-1RAP-C8-RecC-ES-IgG1LALA (antibody, V domains shown)
VH: QVQLVQSGAEVKKPGSSVKVSCKASGSPAEPYAIQWVRQAPGQGLEWMGYIIPSLGGYDYAQKFQGRVTITADESTSTAYMELSSLRSEDTAVYYCARGQTLYESGRQFDIWGQGTLVTVSS
VL: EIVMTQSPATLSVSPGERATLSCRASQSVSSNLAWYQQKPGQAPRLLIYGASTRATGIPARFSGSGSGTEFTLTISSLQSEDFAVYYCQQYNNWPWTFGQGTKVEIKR
notes: also called ISB 880-C8-recC-ES
Turning to B1, in test [1], the Kd is 0.251 nM, the koff came out at 0.000172 s⁻¹ and the kon stood at 693000 M⁻¹ s⁻¹. Besides, in test [2], the Kd was 0.307 nM, the koff stood at 0.000196 s⁻¹ and the kon turned out to be 638000 M⁻¹ s⁻¹.

As a reminder, the Kd is the equilibrium constant for the complex coming apart. By koff is commonly meant the first-order rate constant of dissociation. The term kon denotes a measure of how fast the partners come together.
